Source: patent US20190233494A1 (Sanofi, published 2019)
Starred links: 1 amine or outer side, 2 acyl side, 3 side chain; linkers in the order of their positions; H or OH if unused. Non-standard residues stand in square brackets, D forms with d. Groups on a side chain read outwards from the residue. *: point of attachment. TTDS = 4-[3-[2-[2-(3-aminopropoxy)ethoxy]ethoxy]propylamino]-4-oxo-butanoyl; γGlu = O=C(O)[C@H](CCC(=O)[*:2])N[*:1]; Stearoyl = CCCCCCCCCCCCCCCCCC(=O)*; Palmitoyl = CCCCCCCCCCCCCCCC(=O)*; αMeK = C[C@](N)(CCCCN)C(=O)O; hLys = NCCCCC[C@H](N)C(=O)O; AEEA = NCCOCCOCC(=O)O; Aib = CC(C)(N)C(=O)O

B1: peptide of SEQ ID NO: 19 (peptide)
peptide: Ac-LEGREKVRAK(Ac)I[Aib][Aib]EGK([AEEA-AEEA-AEEA-γGlu-γGlu-γGlu-Palmitoyl])STWS[Aib]RKK(Ac)-NH2
SMILES: CCCCCCCCCCCCCCCC(=O)N[C@@H](CCC(=O)N[C@@H](CCC(=O)N[C@@H](CCC(=O)NCCOCCOCC(=O)NCCOCCOCC(=O)NCCOCCOCC(=O)NCCCC[C@H](NC(=O)CNC(=O)[C@H](CCC(=O)O)NC(=O)C(C)(C)NC(=O)C(C)(C)NC(=O)[C@@H](NC(=O)[C@H](CCCCNC(C)=O)NC(=O)[C@H](C)NC(=O)[C@H](CCCNC(=N)N)NC(=O)[C@@H](NC(=O)[C@H](CCCCN)NC(=O)[C@H](CCC(=O)O)NC(=O)[C@H](CCCNC(=N)N)NC(=O)CNC(=O)[C@H](CCC(=O)O)NC(=O)[C@H](CC(C)C)NC(C)=O)C(C)C)[C@@H](C)CC)C(=O)N[C@@H](CO)C(=O)N[C@H](C(=O)N[C@@H](Cc1c[nH]c2ccccc12)C(=O)N[C@@H](CO)C(=O)NC(C)(C)C(=O)N[C@@H](CCCNC(=N)N)C(=O)N[C@@H](CCCCN)C(=O)N[C@@H](CCCCNC(C)=O)C(N)=O)[C@@H](C)O)C(=O)O)C(=O)O)C(=O)O
B2: peptide of SEQ ID NO: 21 (peptide)
peptide: Ac-LEGREKVRAK(Ac)I[Aib][Aib]EGK([AEEA-AEEA-AEEA-AEEA-γGlu-γGlu-γGlu-Stearoyl])STWS[Aib]RKK(Ac)-NH2
SMILES: CCCCCCCCCCCCCCCCCC(=O)N[C@@H](CCC(=O)N[C@@H](CCC(=O)N[C@@H](CCC(=O)NCCOCCOCC(=O)NCCOCCOCC(=O)NCCOCCOCC(=O)NCCOCCOCC(=O)NCCCC[C@H](NC(=O)CNC(=O)[C@H](CCC(=O)O)NC(=O)C(C)(C)NC(=O)C(C)(C)NC(=O)[C@@H](NC(=O)[C@H](CCCCNC(C)=O)NC(=O)[C@H](C)NC(=O)[C@H](CCCNC(=N)N)NC(=O)[C@@H](NC(=O)[C@H](CCCCN)NC(=O)[C@H](CCC(=O)O)NC(=O)[C@H](CCCNC(=N)N)NC(=O)CNC(=O)[C@H](CCC(=O)O)NC(=O)[C@H](CC(C)C)NC(C)=O)C(C)C)[C@@H](C)CC)C(=O)N[C@@H](CO)C(=O)N[C@H](C(=O)N[C@@H](Cc1c[nH]c2ccccc12)C(=O)N[C@@H](CO)C(=O)NC(C)(C)C(=O)N[C@@H](CCCNC(=N)N)C(=O)N[C@@H](CCCCN)C(=O)N[C@@H](CCCCNC(C)=O)C(N)=O)[C@@H](C)O)C(=O)O)C(=O)O)C(=O)O
B3: peptide of SEQ ID NO: 22 (peptide)
peptide: LEGREKVRAXIXXEGXSTFSXRAX
modifications: Ac-L-E-G-R-E-K-V-R-A-K(Ac)-I-Aib-Aib-E-G-K(PEG2DGA-PEG2DGA-PEG2DGA-gE-gE-gE-Palm)-S-T-F-S-Mly-R-A-K(Ac)-NH2
B4: peptide of SEQ ID NO: 26 (peptide)
peptide: Ac-LEGREKVRAK(Ac)I[Aib][Aib]EGK([AEEA-AEEA-AEEA-AEEA-γGlu-γGlu-γGlu-Stearoyl])STFS[αMeK]RAK(Ac)-NH2
SMILES: CCCCCCCCCCCCCCCCCC(=O)N[C@@H](CCC(=O)N[C@@H](CCC(=O)N[C@@H](CCC(=O)NCCOCCOCC(=O)NCCOCCOCC(=O)NCCOCCOCC(=O)NCCOCCOCC(=O)NCCCC[C@H](NC(=O)CNC(=O)[C@H](CCC(=O)O)NC(=O)C(C)(C)NC(=O)C(C)(C)NC(=O)[C@@H](NC(=O)[C@H](CCCCNC(C)=O)NC(=O)[C@H](C)NC(=O)[C@H](CCCNC(=N)N)NC(=O)[C@@H](NC(=O)[C@H](CCCCN)NC(=O)[C@H](CCC(=O)O)NC(=O)[C@H](CCCNC(=N)N)NC(=O)CNC(=O)[C@H](CCC(=O)O)NC(=O)[C@H](CC(C)C)NC(C)=O)C(C)C)[C@@H](C)CC)C(=O)N[C@@H](CO)C(=O)N[C@H](C(=O)N[C@@H](Cc1ccccc1)C(=O)N[C@@H](CO)C(=O)N[C@@](C)(CCCCN)C(=O)N[C@@H](CCCNC(=N)N)C(=O)N[C@@H](C)C(=O)N[C@@H](CCCCNC(C)=O)C(N)=O)[C@@H](C)O)C(=O)O)C(=O)O)C(=O)O
B5: peptide of SEQ ID NO: 32 (peptide)
peptide: LEGREKVRAXIXXEGXSTFSXRAX
modifications: Ac-L-E-G-R-E-K-V-R-A-K(Ac)-I-Aib-Aib-E-G-K(PEG2DGA-PEG2DGA-PEG2DGA-gE-gE-gE-Stea)-S-T-F-S-Mly-R-A-K(Ac)-NH2

biological target: T1, RXFP1 receptor (endogenous, on OVCAR5 cells) (UniProt Q9HBX9 1-757, limits assumed); experiment: cell-based or functional assay
T1 sequence (looked up): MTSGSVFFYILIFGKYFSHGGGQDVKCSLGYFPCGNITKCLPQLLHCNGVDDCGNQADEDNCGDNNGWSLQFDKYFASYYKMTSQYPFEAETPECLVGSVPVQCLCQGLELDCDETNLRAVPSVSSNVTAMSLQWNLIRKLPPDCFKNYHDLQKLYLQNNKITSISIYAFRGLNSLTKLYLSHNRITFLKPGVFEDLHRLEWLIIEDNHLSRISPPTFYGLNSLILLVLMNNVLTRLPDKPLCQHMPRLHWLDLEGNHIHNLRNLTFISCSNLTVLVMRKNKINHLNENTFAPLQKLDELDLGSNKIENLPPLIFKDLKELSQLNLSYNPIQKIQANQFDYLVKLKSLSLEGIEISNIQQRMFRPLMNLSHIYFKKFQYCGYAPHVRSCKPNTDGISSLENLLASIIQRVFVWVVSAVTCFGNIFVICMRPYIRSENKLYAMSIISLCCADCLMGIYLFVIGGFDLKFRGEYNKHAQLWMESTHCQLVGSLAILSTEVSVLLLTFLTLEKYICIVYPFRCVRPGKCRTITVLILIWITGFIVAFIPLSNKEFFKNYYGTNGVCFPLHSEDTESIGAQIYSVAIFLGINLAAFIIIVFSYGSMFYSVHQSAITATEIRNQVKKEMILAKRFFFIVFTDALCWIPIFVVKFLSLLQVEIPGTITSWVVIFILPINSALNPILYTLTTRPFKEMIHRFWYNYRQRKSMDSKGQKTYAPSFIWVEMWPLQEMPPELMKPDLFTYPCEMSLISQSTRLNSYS

Binder	EC50 (nM), OVCAR 5 cells (cAMP) [nM]	EMax, OVCAR 5 cells (cAMP) [%]
Ac-LEGREKVRAK(Ac)I[Aib][Aib]EGK([TTDS-TTDS-γGlu-γGlu-γGlu-Palmitoyl])STWS[dK]RKK(Ac)-NH2 [peptide of SEQ ID NO: 18]	1.54	92
B1	11.5	94
Ac-LEGREKVRAK(Ac)I[Aib][Aib]EGK([TTDS-TTDS-TTDS-γGlu-γGlu-γGlu-Stearoyl])STWS[Aib]RKK(Ac)-NH2 [peptide of SEQ ID NO: 20]	0.15	96
B2	0.65	93
B3	1	92
Ac-LEGRELVRAK(Ac)I[Aib][Aib]EGK([TTDS-TTDS-TTDS-γGlu-γGlu-γGlu-Palmitoyl])STFS[αMeK]RAK(Ac)-NH2 [peptide of SEQ ID NO: 23]	11.1	92
Ac-LEGREFVRAK(Ac)I[Aib][Aib]EGK([TTDS-TTDS-TTDS-γGlu-γGlu-γGlu-Palmitoyl])STFS[αMeK]RAK(Ac)-NH2 [peptide of SEQ ID NO: 24]	36.4	100
Ac-LEGREQVRAK(Ac)I[Aib][Aib]EGK([TTDS-TTDS-TTDS-γGlu-γGlu-γGlu-Palmitoyl])STFS[αMeK]RAK(Ac)-NH2 [peptide of SEQ ID NO: 25]	28.7	100
Ac-LEGREKVRAK(Ac)I[Aib][Aib]EGK([TTDS-TTDS-TTDS-γGlu-γGlu-γGlu-Palmitoyl])STFS[αMeK]RAK(Ac)-NH2 [peptide of SEQ ID NO: 3]	0.34	97
B4	0.43	96
Ac-LEGRERVRAK(Ac)I[Aib][Aib]EGK([TTDS-TTDS-TTDS-γGlu-γGlu-γGlu-Palmitoyl])STFS[αMeK]RAK(Ac)-NH2 [peptide of SEQ ID NO: 27]	1.8	98
Ac-LEGRE[hLys]VRAK(Ac)I[Aib][Aib]EGK([TTDS-TTDS-TTDS-γGlu-γGlu-γGlu-Palmitoyl])STFS[αMeK]RAK(Ac)-NH2 [peptide of SEQ ID NO: 28]	0.62	88
Ac-LEGREKVR[Aib]K(Ac)I[Aib][Aib]EGK([TTDS-TTDS-TTDS-γGlu-γGlu-γGlu-Palmitoyl])STFS[αMeK]RAK(Ac)-NH2 [peptide of SEQ ID NO: 29]	1.6	88
Ac-LEGREKVRAK(Ac)I[Aib][Aib]EGK([TTDS-TTDS-TTDS-γGlu-γGlu-γGlu-Stearoyl])STWS[αMeK]RAK(Ac)-NH2 [peptide of SEQ ID NO: 30]	0.21	89
Ac-LEGRERVRAK(Ac)I[Aib][Aib]EGK([TTDS-TTDS-TTDS-γGlu-γGlu-γGlu-Palmitoyl])STWS[Aib]RRK(Ac)-NH2 [peptide of SEQ ID NO: 31]	0.19	
B5	0.1	97
